For this assay, the target named is APC-B (APC Basic domain, residues 2167-2674), without SNAP (human, UniProt P25054 2167-2674). As to the kind of experiment: other fluorescence titration.

In paper PMC7726095 (Current biology : CB, 2020) one finds IC50 data, which are given here for one molecule.

B1: EB1 (full-length, untagged, unlabeled) (natural protein, human, UniProt Q15691 1-268, looked up)
chain: MAVNVYSTSVTSDNLSRHDMLAWINESLQLNLTKIEQLCSGAAYCQFMDMLFPGSIALKKVKFQAKLEHEYIQNFKILQAGFKRMGVDKIIPVDKLVKGKFQDNFEFVQWFKKFFDANYDGKDYDPVAARQGQETAVAPSLVAPALNKPKKPLTSSSAAPQRPISTQRTAAAPKAGPGVVRKNPGVGNGDDEAAELMQQVNVLKLTVEDLEKERDFYFGKLRNIELICQENEGENDPVLQRIVDILYATDEGFVIPDEGGPQEEQEEY
By IC50 is commonly meant the midpoint of a concentration-inhibition curve. A lower IC50 goes with greater potency in that assay. On to B1, for which the IC50 was roughly 300 nM.
